B1: M1308F (antibody, V domains shown)
VH: EVQLQQSGAELVRPGALVKLSCKASGFNIKDYYIYWVKQRPEQGLEWIGWIDPENGNTVFDPKFQGKASITSDTSSNTAYLQLSSLTSEDTAVYYCAYYGTSSFDFWGQGTTLTVSS
VL: DIKMTQSPSSMYVSLGERVTITCKASQDINRYLNWFQQKPGKSPKTLIHRANRLVDGVPSRFSGSGSGQEYSLTISSLEFEDMGIYYCLQFHEFPYTFGGGTKLEIK
B2: H1308F (antibody, V domains shown)
VH: QVQLVQSGAEVKKPGASVKVSCKASGFNIKDYYIYWVRQAPGQGLEWIGWIDPENGNTVFDPKFQGRVTMTRDTSTSTVYMELSSLRSEDTAVYYCAYYGTSSFDFWGQGTTLTVSS
VL: DIQMTQSPSTLSASVGDRVTITCKASQDINRYLNWYQQKPGKAPKLLIYRANRLVDGVPSRFSGSGSGTEFTLTISSLQPDDFATYYCLQFHEFPYTFGGGTKLEIK
B3: CH1129 (M1129HuGamma1,Kappa) (antibody, V domains shown)
VH: QVELQESGPGILQPSQTLSLTCSFSGFSLSTSGMSVGWIRQPSGEGLEWLADIWWDDKKDYNPSLKSRLTISKDTSSNQVFLKITGVDTADTATYYCARSMITNWYFDVWGAGTTVTVSS
VL: DIQLTQSPAIMSASPGEKVTMTCSASSSVGYMHWYQQKSSTSPKLWIYDTSKLASGVPGRFSGSGSGNSYSLTISSIQAEDVATYYCFQGSGYPFTFGGGTKLEIK
B4: M1129 (antibody, V domains shown)
VH: QVELQESGPGILQPSQTLSLTCSFSGFSLSTSGMSVGWIRQPSGEGLEWLADIWWDDKKDYNPSLKSRLTISKDTSSNQVFLKITGVDTADTATYYCARSMITNWYFDVWGAGTTVTVSS
VL: DIQLTQSPAIMSASPGEKVTMTCSASSSVGYMHWYQQKSSTSPKLWIYDTSKLASGVPGRFSGSGSGNSYSLTISSIQAEDVATYYCFQGSGYPFTFGGGTKLEIK
B5: H1129 (humanized 1129) (antibody, V domains shown)
VH: QVTLRESGPALVKPSQTLTLTCSFSGFSLSTSGMSVGWIRQPSGKALEWLADIWWDDKKDYNPSLKSRLTISKDTSKNQVVLKVTNVDPADTATYYCARSMITNWYFDVWGAGTTVTVSS
VL: DIQMTQSPSTLSASVGDRVTITCKCQLSVGYMHWYQQKPGKAPKLWIYDTSKLASGVPSRFSGSGSGTEFTLTISSLQPDDFATYYCFQGSGYPFTFGGGTKLEIK

Experiments:
[1] = biological target: RSV F protein (C-terminal truncated) (respiratory syncytial virus, UniProt P03420); experiment: SPR
Sequence of RSV F protein (C-terminal truncated) (P03420 26-524): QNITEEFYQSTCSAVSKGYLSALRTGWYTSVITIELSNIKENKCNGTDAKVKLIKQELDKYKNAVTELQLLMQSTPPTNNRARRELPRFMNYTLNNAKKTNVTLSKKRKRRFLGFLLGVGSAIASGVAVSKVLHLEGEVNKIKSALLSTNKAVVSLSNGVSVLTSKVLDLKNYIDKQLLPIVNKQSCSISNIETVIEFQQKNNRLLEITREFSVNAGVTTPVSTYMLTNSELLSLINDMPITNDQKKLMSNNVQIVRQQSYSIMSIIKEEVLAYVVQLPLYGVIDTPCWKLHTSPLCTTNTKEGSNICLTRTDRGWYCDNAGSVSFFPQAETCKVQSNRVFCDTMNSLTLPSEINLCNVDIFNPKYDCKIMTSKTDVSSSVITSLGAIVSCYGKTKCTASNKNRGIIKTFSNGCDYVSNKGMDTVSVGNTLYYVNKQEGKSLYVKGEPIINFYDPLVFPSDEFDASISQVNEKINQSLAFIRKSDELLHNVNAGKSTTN

[2] = biological target: T1, RSV F protein from infected HEp2 cell lysate (respiratory syncytial virus, UniProt P03420); experiment: ELISA, apparent (unit printed as 10mm)
T1 sequence (P03420 26-524): as above

[3] = biological target: T1, RSV F protein from infected HEp2 cell …; experiment: ELISA, apparent

Binder	Kd [1] [nM]	Kd [2] [nM]	Kd [3] [nM]
B1	1.1		
B2	2.5		
B3	1.5	10	
B4	11.4		
B5	1.4		0.7

Source: patent EP1659133
